Among the data in paper PMC5460274, “Human dimethylarginine dimethylaminohydrolase 1 inhibition by proton pump inhibitors and the cardiovascular risk marker asymmetric dimethylarginine: in vitro and in vivo significance” (Scientific Reports, 2017) are Km values, retold here.

Substrate in this data set: CN(C)C(=N)NCCC[C@H](N)C(=O)O
Description: cells, lysate or membranes.

For orientation: Km means the substrate concentration at which the rate is half of its maximum.

B1: dimethylarginine dimethylaminohydrolase 1 (DDAH1) (Homo sapiens) (protein)
chain: AGLGHPAAFGRATHAVVRALPESLGQHALRSAKGEEVDVARAERQHQLYVGVLGSKLGLQVVELPADESLPDCVFVEDVAVVCEETALITRPGAPSRRKEVDMMKEALEKLQLNIVEMKDENATLDGGDVLFTGREFFVGLSKRTNQRGAEILADTFKDYAVSTVPVADGLHLKSFCSMAGPNLIAIGSSESAQKALKIMQQMSDHRYDKLTVPDDIAANCIYLNIPNKGHVLLHRTPEEYPESAKVYEKLKDHMLIPVSMSELEKVDGLLTCCSVLINKKVDS
For B1, the Km is 45 ± 2 µM.
